# Read-outs that look alike come from different tables or passages of the source.
# What was measured:
# [1] = target: T1, recombinant human CD4 (catalogue number: 514-CD/CF, manufactured by R&D Systems) (human, UniProt P01730 26-390); assay: SPR, Biacore T100; antibody captured on anti-human IgG chip, recombinant human CD4 flowed; 1:1 binding model; value beyond the maker's measurable limit (1 × 10^-5)
# T1 construct: Bought protein (R&D Systems); also called recombinant CD4
# Experimental: (§1) In order to kinetically analyze the binding activity of anti-CD4 chimeric antibodies KM4045 to KM4049, 6G5-1 and 6G5-P to recombinant human CD4, the binding activity was measured by surface plasmon resonance method (SPR). All of the following manipulations were carried out using a Biacore T100 (manufactured by GE Healthcare Bio-Sciences). The anti-human IgG antibody was immobilized on a CM5 sensor chip (manufactured by GE Healthcare Bio-Sciences) by an amine coupling method using a Human Antibody Capture Kit (manufactured by GE Healthcare Bio-Sciences) in accordance with the protocols attached thereto. An assay sample (anti-CD4 chimeric antibodies KM4045 to KM4049) was added to be captured on the anti-human IgG antibody-immobilized chip to give 100 RU (resonance unit). Thereafter, the recombinant human CD4 (manufactured by R&D) diluted from 2500 ng/mL in five steps was allowed to run at a flow rate of 30 μL/min onto the chip, and the sensorgram corresponding to each concentration was obtained. The analysis was carried out in the 1:1 binding model using an analysis software attached to the apparatus, Biacore T100 Evaluation software (manufactured by Biacore), thereby calculating an association rate constant ka and a dissociation rate constant kd of respective antibodies for human CD4. […]
# [2] = target: T1, recombinant human CD4 (catalogue …); assay: SPR, Biacore T100; antibody captured on anti-human IgG chip, recombinant human CD4 flowed; 1:1 binding model; kd beyond the maker's measurable limit
# Experimental: as §1
# [3] = target: T1, recombinant human CD4 (catalogue …); assay: SPR, Biacore T100; antibody captured on anti-human IgG chip, recombinant human CD4 flowed; 1:1 binding model
# Experimental: (§2) In order to kinetically analyze the binding activity of anti-CD4 chimeric antibodies KM4045 to KM4049, 6G5-1 and 6G5-P to recombinant human CD4, the binding activity was measured by surface plasmon resonance method (SPR). All of the following manipulations were carried out using a Biacore T100 (manufactured by GE Healthcare Bio-Sciences). The anti-human IgG antibody was immobilized on a CM5 sensor chip (manufactured by GE Healthcare Bio-Sciences) by an amine coupling method using a Human Antibody Capture Kit (manufactured by GE Healthcare Bio-Sciences) in accordance with the protocols attached thereto. An assay sample (anti-CD4 chimeric antibodies KM4045 to KM4049) was added to be captured on the anti-human IgG antibody-immobilized chip to give 100 RU (resonance unit). Thereafter, the recombinant human CD4 (manufactured by R&D) diluted from 2500 ng/mL in five steps was allowed to run at a flow rate of 30 μL/min onto the chip, and the sensorgram corresponding to each concentration was obtained. The analysis was carried out in the 1:1 binding model using an analysis software attached to the apparatus, Biacore T100 Evaluation software (manufactured by Biacore), thereby calculating an association rate constant ka and a dissociation rate constant kd of respective antibodies for human CD4.
# As a result, an association rate constant ka, a dissociation rate constant kd, and a dissociation constant KD (kd/ka) of individual antibodies thus obtained are given in Table 5.
# [4] = target: T1, recombinant human CD4 (catalogue …); assay: as above; remark: listed apart in the source
# Experimental: as §2
# The measurement of a binding activity was carried out according to the method described in Example 7(2). The association rate constant ka, the dissociation rate constant kd and the dissociation constant KD (kd/ka) of respective antibodies thus obtained are shown in Table 6.
binder,measurement,setting,value
"anti-CD4 chimeric antibody KM4045 (antibody, V domains shown, Variable regions of rat KM4065 joined to a '113F type' heavy chain constant region and a human kappa constant region; In the 113F type, part of the human IgG1 Fc is substituted with human IgG3 Fc (US2007/0148165); Expressed in FUT8 knockout CHO cells (0% fucose)) VH: EVQLVESGGGLVQPGRSMKLSCAASGFTFSNYGMAWVRQAPTKGLEWVATISYDGSITYYRDSVKGRFTISRDHAKSTLYLQMNSLRSEDTATYYCTREEQYSSWYFDFWGPGIMVTVSS VL: DIVLTQSPALAVSLGQRATISCRASQSVSISSHDLMQWYQQKPGQQPKLLIYDAFNLASGIPVRFSGSGSGTDFTLTIDPVQADDIATYYCQQSKDDPYTFGAGTKLELK",koff,[1],< 1e-05 s⁻¹
same,Kd,[2],≤ 0.0824 pM
same,kon,[3],360000 M⁻¹ s⁻¹
same,Kd,[4],< 18.4 pM
same,koff,[4],< 1e-05 s⁻¹
same,kon,[4],541000 M⁻¹ s⁻¹

# Reference: patent publication US20100310573A1 (Kyowa Kirin, published 2010)
